Source: patent US20060094101A1 (Pfizer, published 2006)

B1: Lamin (Clontech), yeast two-hybrid control bait (other, UniProt P04386 1-147, looked up)
chain: MKLLSSIEQACDICRLKKLKCSKEKPKCAKCLKNNWECRYSPKTKRSPLTRAHLTEVESRLERLEQLFLLIFPREDLDMILKMDSLQDIKALLTGLFVQDNVNKDAVTDRLASVETDMPLTLRQHRISATSSSEESSNKGQRQLTVSSEEVVSREVSGIKAAYEAELGDARKTLDSVAKERARLQLELSKVREEFKELKARNTKKEGDLIAAQARLKDLEALLNSKEAALSTALSEKRTLEGELHDLRGQVAKLEAALGEAKKQLQDEMLRRVDAENRLQTMKEELDFQKNIYSEELRETKRRHETRLVEID
notes: Specificity control bait; also called lamin (L)
B2: p53, yeast two-hybrid control bait (other, UniProt P04386 1-147, looked up)
chain: MKLLSSIEQACDICRLKKLKCSKEKPKCAKCLKNNWECRYSPKTKRSPLTRAHLTEVESRLERLEQLFLLIFPREDLDMILKMDSLQDIKALLTGLFVQDNVNKDAVTDRLASVETDMPLTLRQHRISATSSSEESSNKGQRQLTVSPVTETPGPVAPAPATPWPLSSFVPSQKTYQGNYGFHLGFLQSGTAKSVMCTYSPPLNKLFCQLAKTCPVQLWVSATPPAGSRVRAMAIYKKSQHMTEVVRRCPHHERCSDGDGLAPPQHLIRVEGNLYPEYLEDRQTFRHSVVVPYEPPEAGSEYTTIHYKYMCNSSCMGGMNRRPILTIITLEDSSGNLLGRDSFEVRVCACPGRDRRTEEENFRKKEVLCPELPPGSAKRALPTCTSASPPQKKKPLDGEYFTLKIRGRKRFEMFRELNEALELKDAHATEESGDSRAHSSYLKTKKGQSTSRHKKTMVKKVGPDSD
notes: Specificity control bait
B3: V5-tagged Shc (V5-p66 Shc A) (other, not shown: small tags and cut ends)
chain: MDLLPPKPKYNPLRNESLSSLEEGASGSTPPEELPSPSASSLGPILPPLPGDDSPLPCVPSFPRMSNLKLANPAGGPWGLKGSQERLLKMGKGVQGQPFGLRPLAPPPDMNKLSGGGGRRTRVEGGQLGGEEWTRHGSFVNKPTRGWLHPNDKVMGPGVSYLVRYMGCVEVLQSMRALDFNTRTQVTREAISLVCEAVPGAKGATRRRKPCSRPLSSILGRSNLKFAGMPITLTVSTSSLNLMAADCKQIIANHHMQSISFASGGDPDTAEYVAYVAKDPVNQRACHILECPEGLAQDVISTIGQAFELRFKQYLRNPPKLVTPHDRMAGFDGSAWDEEEEEPPDHQYYNDFPGKEPPLGGVVDMRLREGAARPTLPSAQMSSHLGATLPIGQHAAGDHEVRKQMLPPPPCPGRELFDDPSYVNIQNLDKARQAGGGAGPPNPSLNGSAPRDLFDMKPFEDALRVPPPPQSMSMAEQLQGEPWFHGKLSRREAEALLQLNGDFLVRESTTTPGQYVLTGLQSGQPKHLLLVDPEGVVRTKDHRFESVSHLISYHMDNHLPIISAGSELCLQQPVDRKV
B4: src homology and collagen (Shc; Shc A), yeast two-hybrid library clone (other, not shown: large carriers)
chain: B3 chain
notes: Clone from a pretransformed human bone marrow cDNA library
B5: human polyhomeotic 2 (HPH2), yeast two-hybrid library clone (other, not shown: large carriers)
chain: MCLRGGCSPRAPAAAPQPRPPPALPPRPRAPVPASRPGRPLLTPARPCGRMRRGSPGPRLGGSRGERRRPAGRDPARVGPGQGLRRPARPGPAAWTETGQGIVHALTDLSIPGMTSGNGNSASSIAGTAPQNGENKPPQAIVKPQILTHVIEGFVIQEGADVSRWDARLLVGNLKKKYAQGFLPEKLPQQDHTTTTDSEMEEPYLQESKEEGAPLKLKCELCGRVDFAYKFKRSKRFCSMACAKRYNVGCTKRVGLFHSDRSKLQKAGAATHNRRRPAKPVCHHLPRIPRSSQQALCPFRLLLLCVTHSQEDSSRCSDNSSYEEPLSPISASSSTSAGDKASGTWSSPTCICGTWWAWDTTSCQVSHQVNVEDVYEFIRSLPGCQEIAEEFRAQEIDGQALLLLKEDHLMSVMNIKLGPALKIYARISMLKDS
notes: Clone from a pretransformed human bone marrow cDNA library; also called human polyhomeotic homolog 2

Tests used:
[1] = molecular target: T1, similar to smoothelin (STS), yeast two-hybrid library clone (yeast; human, UniProt P53814 2-868); experiment: yeast two-hybrid, growth and color on selective media
T1 construct: Clone from a pretransformed human bone marrow cDNA library
From the text: (§1) Independent sequences were transformed into bacteria (DH5 α) from which DNA was subsequently isolated. Next, the DNA was transformed into yeast strain AH109. […] Each independent sequence strain transformed in AH109 was mated with Y187 yeast transformed with each of the three baits. Independent clones which interacted with MK2 and MK2 K93R, but not with empty vector pGBKT7, TPL2, p53, or Lamin, as assayed by their growth on SD/-Ade/-His/-Leu/-Trp and blue color on SD/-Leu/-Trp X-α-GAL, were identified as clones which included DNA inserts encoding specific MK2 interacting proteins (FIG. 9A). […] One protein encoded by an independent DNA sequence characterized was “similar to smoothelin” (STS).

[2] = molecular target: T1, similar to smoothelin (STS), yeast …; experiment: yeast two-hybrid, growth on SD/-Ade/-His/-Leu/-Trp and blue color on SD/-Leu/-Trp X-α-GAL
From the text: as §1

MYC-tagged MK2 = MYC-tagged MK2 (UniProt P49137 1-400, limits assumed); experiment: cell-based or functional assay
[3] = molecular target: T2, TPL2, yeast two-hybrid control bait (yeast, UniProt P04386 1-147; P41279 1-467, limits assumed); experiment: yeast two-hybrid, growth on SD/-Ade/-His/-Leu/-Trp and blue color on SD/-Leu/-Trp X-α-GAL
T2 construct: Specificity control bait
From the text: as §1

[4] = molecular target: B2; experiment: as above
From the text: as §1

[5] = molecular target: B1; experiment: yeast two-hybrid, growth and color on selective media
From the text: as §1

T1 sequence (P53814 other isoform, or with tags, fused parts or gaps limits assumed): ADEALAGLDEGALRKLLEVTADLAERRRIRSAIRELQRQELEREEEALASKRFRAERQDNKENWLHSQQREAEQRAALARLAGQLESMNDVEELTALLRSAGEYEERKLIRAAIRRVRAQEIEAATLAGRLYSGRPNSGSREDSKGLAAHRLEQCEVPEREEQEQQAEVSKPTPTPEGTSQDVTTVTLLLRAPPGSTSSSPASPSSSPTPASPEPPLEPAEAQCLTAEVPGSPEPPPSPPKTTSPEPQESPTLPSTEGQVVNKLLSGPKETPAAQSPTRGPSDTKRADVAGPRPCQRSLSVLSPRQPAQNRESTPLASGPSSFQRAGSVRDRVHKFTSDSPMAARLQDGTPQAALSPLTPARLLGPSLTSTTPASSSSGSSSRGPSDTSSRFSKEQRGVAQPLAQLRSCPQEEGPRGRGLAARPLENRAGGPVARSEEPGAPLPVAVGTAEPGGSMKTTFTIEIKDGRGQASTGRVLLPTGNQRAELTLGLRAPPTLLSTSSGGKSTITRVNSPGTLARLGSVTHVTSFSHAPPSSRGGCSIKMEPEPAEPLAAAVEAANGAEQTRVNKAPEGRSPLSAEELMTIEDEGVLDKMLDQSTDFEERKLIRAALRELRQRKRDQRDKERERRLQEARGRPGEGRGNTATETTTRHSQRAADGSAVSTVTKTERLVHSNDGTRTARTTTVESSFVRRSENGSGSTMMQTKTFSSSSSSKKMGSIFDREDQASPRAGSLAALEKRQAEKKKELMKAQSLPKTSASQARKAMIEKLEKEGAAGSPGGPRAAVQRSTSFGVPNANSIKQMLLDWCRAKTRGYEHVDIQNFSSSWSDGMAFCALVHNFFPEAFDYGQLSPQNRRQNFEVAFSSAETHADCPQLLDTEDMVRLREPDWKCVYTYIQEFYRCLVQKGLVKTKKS
Chain of MYC-tagged MK2 (P49137 whole entry): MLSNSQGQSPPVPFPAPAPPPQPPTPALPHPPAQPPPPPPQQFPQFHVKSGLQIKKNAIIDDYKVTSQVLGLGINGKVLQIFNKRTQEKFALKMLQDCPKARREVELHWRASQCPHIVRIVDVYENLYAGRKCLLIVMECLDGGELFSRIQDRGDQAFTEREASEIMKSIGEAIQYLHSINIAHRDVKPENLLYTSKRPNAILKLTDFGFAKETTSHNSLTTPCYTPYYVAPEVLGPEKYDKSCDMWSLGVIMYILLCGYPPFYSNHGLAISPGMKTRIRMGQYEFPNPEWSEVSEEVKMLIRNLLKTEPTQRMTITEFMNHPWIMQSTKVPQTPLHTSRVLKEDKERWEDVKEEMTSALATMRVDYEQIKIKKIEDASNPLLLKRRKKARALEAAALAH

Binder | binding result [3] | binding result [4] | binding result [5] | further results
B1 | – | – | – | binding result [1]: no binding
B2 | – | – | – | binding result [2]: no binding
B3 | – | – | – | TNF-α biosynthesis (secreted TNF-α by ELISA) in LPS-stimulated RAW264.7 cells (MYC-tagged MK2): 1.5 fold; basal pHsp 27 levels in HeLa cells (immunoblot, densitometry) (MYC-tagged MK2): 3 fold
B4 | no binding | no binding | no binding | –
B5 | no binding | no binding | no binding | –
